Publication PMC5509742, “Structure of polyhydroxyalkanoate (PHA) synthase PhaC from Chromobacterium sp. USM2, producing biodegradable plastics” (Scientific Reports, 2017)

B1: PHA synthase PhaC from Chromobacterium sp. USM2, full-length (enzyme)
chain: not shown
notes: two additional vector-derived residues (Gly-Pro) identified at the N-terminus after PreScission cleavage; Class I PHA synthase PhaC, Chromobacterium sp; USM2; full-length gene of 1704 nucleotides, calc; 63.4 kDa; Cloned into the His-fusion vector pET47b(+); the His-tag was removed with PreScission protease; also called PhaCCs; full-length PhaCCs; source: E. coli Rosetta 2 (DE3), purified (Ni-NTA, …)
B2: catalytic domain of PhaC from Chromobacterium sp. USM2 (residues 175-567) (domain or fragment)
chain: not shown
notes: two additional vector-derived residues (Gly-Pro) identified at the N-terminus after PreScission cleavage; Class I PHA synthase PhaC, Chromobacterium sp; USM2, C-terminal catalytic (CAT) domain, residues 175-567 (1179 nucleotides, calc. 43.8 kDa); Cloned into the His-fusion vector pET47b(+); the His-tag was removed with PreScission protease; also called PhaCCs-CAT; mol A; source: E. coli Rosetta 2 …

Experiments:
[1] = biological target: the molecule itself; test: AUC; sedimentation velocity, 20 °C, 20,000 rpm, 5 µM full-length PhaCCs without substrate, 10 mM Tris-HCl (pH 8.0), 100 mM NaCl, 3 mM β-ME; monomer to dimer
[2] = biological target: the molecule itself; test: AUC; sedimentation velocity, 20 °C, 20,000 rpm, 5 µM full-length PhaCCs with 50 µM DL-3HB-CoA (10-fold molar ratio), 10 mM Tris-HCl (pH 8.0), 100 mM NaCl, 3 mM β-ME
[3] = biological target: the molecule itself; test: AUC; sedimentation velocity, 20 °C, 20 µM PhaCCs-CAT without DL-3HB-CoA, 10 mM Tris-HCl (pH 8.0), 100 mM NaCl, 3 mM β-ME; monomer to dimer

Protein	stoichiometry N [1]	stoichiometry N [2]	stoichiometry N [3]
B1	2	~4	
B2			2
